Experimental data: ChEMBL document CHEMBL4725261, “Design, synthesis and evaluation of carbamate-linked uridyl-based inhibitors of human ST6Gal I” (Bioorg Med Chem, 2020)

Substrate: CC(=O)N[C@H]1[C@H]([C@H](O)[C@H](O)CO)O[C@](OP(=O)(O)OC[C@H]2O[C@@H](n3ccc(N)nc3=O)[C@H](O)[C@@H]2O)(C(=O)O)C[C@@H]1O
Experiment: Binding affinity to recombinant human N-terminal 6His-tagged ST6Gal-1 (Glu44 to Cys406 residues)

B1: Beta-galactoside alpha-2,6-sialyltransferase 1 (Homo sapiens), P15907 (protein)
chain: MIHTNLKKKFSCCVLVFLLFAVICVWKEKKKGSYYDSFKLQTKEFQVLKSLGKLAMGSDSQSVSSSSTQDPHRGRQTLGSLRGLAKAKPEASFQVWNKDSSSKNLIPRLQKIWKNYLSMNKYKVSYKGPGPGIKFSAEALRCHLRDHVNVSMVEVTDFPFNTSEWEGYLPKESIRTKAGPWGRCAVVSSAGSLKSSQLGREIDDHDAVLRFNGAPTANFQQDVGTKTTIRLMNSQLVTTEKRFLKDSLYNEGILIVWDPSVYHSDIPKWYQNPDYNFFNNYKTYRKLHPNQPFYILKPQMPWELWDILQEISPEEIQPNPPSSGMLGIIIMMTLCDQVDIYEFLPSKRKTDVCYYYQKFFDSACTMGAYHPLLYEKNLVKHLNQGTDEDIYLLGKATLPGFRTIHC
Km: 37.2 µM
